Measured values reported in US20230228751 (APTAMER DIAGNOSTICS LIMITED, published 2023).
Like-named read-outs stand apart in the source and are kept apart here.

B1: S1_F2 (ssDNA)
DNA: CCAGTGTAGACTACTCAATGCTGCGTTGACTTGATCCTGTGGTATATGGGTGGGAGGGTCGGGTACTATCCACAGGTCAACC
B2: S1_A3-A (ssDNA)
DNA: CCAGTGTAGACTACTCAATGCGTGGGAAGGGTGGGTGGGAGCATTGATAACTCGGAGGAGTGTACTATCCACAGGTCAACC
B3: S1_A6 (ssDNA)
DNA: CCAGTGTAGACTACTCAATGCTGTTATGACTTGACCTTGGGTTATGGGTTTGGGCGGGAGGGTACTATCCACAGGTCAACC
B4: S1_A8 (ssDNA)
DNA: CCAGTGTAGACTACTCAATGCTGTGTTGACTTGATCCTGTGGTATATGGGTGGGAGGGTCGGGTACTATCCACAGGTCAACC
B5: S2_A2 (ssDNA)
DNA: CCAGTGTAGACTACTCAATGCCGATGGGTCGGGGGGGTGGGTAGGCATTGATCGCTCCTTTCGTACTATCCACAGGTCAACC
B6: S2_B1 (ssDNA)
DNA: CCAGTGTAGACTACTCAATGCCGTGGACTGGTCGGGTTTGGATTCGGCAGATGAATCAGTAGTACTATCCACAGGTCAACC
B7: S2_G1 (ssDNA)
DNA: CCAGTGTAGACTACTCAATGCGGCTGTGTGACTTGACCTCTGGATATGGGTGGGAGGGATGGGTACTATCCACAGGTCAACC
B8: S2_A2_F12 (ssDNA)
DNA: CCAGTGTAGACTACTCAATGCCGATGGGTCGGGGGGGTGGGTAGGCATTGATCGCTCCTTTCGT
B9: S2_B1_F12 (ssDNA)
DNA: CCAGTGTAGACTACTCAATGCCGTGGACTGGTCGGGTTTGGATTCGGCAGATGAATCAGTAGTA
B10: S1_C3-B (ssDNA)
DNA: CCAGTGTAGACTACTCAATGCCGATGGGTCGGGGGGGTGGGTAGGCATTGATCGCTCCTTCCGTACTATCCACAGGTCAACC
B11: S1_C4 (ssDNA)
DNA: CCAGTGTAGACTACTCAATGCTACTGATTCATCTGCCGAATCCAAACCCGACCAGTCCACGGTACTATCCACAGGTCAACC
B12: S1_C11 (ssDNA)
DNA: CCAGTGTAGACTACTCAATGCCGTGGACTGGTCGGGTTTGGATTCGGCAGATGAATCCAGTAGTACTATCCACAGGTCAACC
B13: S1_C12 (ssDNA)
DNA: CCAGTGTAGACTACTCAATGCGTGGGAAGGGTGGGTGGGAGCATTGATAACTCGGAGGAGCGTACTATCCACAGGTCAACC
B14: S1_D1 (ssDNA)
DNA: CCAGTGTAGACTACTCAATGCATTCCTTTTGCTACCTATATTCCGTCTCCAGCATAATCCCGTACTATCCACAGGTCAACC
B15: S1_D2 (ssDNA)
DNA: CCAGTGTAGACTACTCAATGCTAGGTCCGTGGGATGGGTGGGGGGGAGGACCAGCCAGCGAGTACTATCCACAGGTCAACC
B16: S1_D4 (ssDNA)
DNA: CCAGTGTAGACTACTCAATGCGGCTTCGGGAGGGGGGGCGGGTAAAAAGCCCATTGCCCTAGTACTATCCACAGGTCAACC
B17: S1_D8 (ssDNA)
DNA: CAGTGTAAGACTACTCAATGCCGTGGACTGGTCGGGTTTGGATTCGGCAGATGAATCAGTAGTACTATCCACAGGTCAACC
B18: S1_E2 (ssDNA)
DNA: CCAGTGTAGACTACTCAATGCGTGTGGTGACCTTGACCTCTGGATATGGGTGGGAGGGGCGGGTACTATCCACAGGTCAACC
B19: S1_E9 (ssDNA)
DNA: CCAGTGTAGACTACTCAATGCGGCTTCGAGAGGGGGGGCGGGTAAAAAGTCCATTGCCCTAGTACTATCCACAGGTCAACC
B20: S1_E10 (ssDNA)
DNA: CCAGTGTAGACTACTCAATGCTGTGTTGACTTGACCTTGGATTATGGGTTTGGGCGGGAGGGTACTATCCACAGGTCAACC
B21: S1_F3-A (ssDNA)
DNA: CCAGTGTAGACTACTCAATGCGGTATGAATATGATCGGCCCTATCCCTTCAGCTATTCCGGGTACTATCCACAGGTCAACC
B22: S1_F3-B (ssDNA)
DNA: CCAGTGTAGACTACTCAATGCGTGGGATGGGTGGGTGGGAGCATTGATAACTCGGAGGAGCGTACTATCCACAGGTCAACC
B23: S1_F5 (ssDNA)
DNA: CCAGTGTAGACTACTCAATGCGTGTGGTAACCTTGACCTTGGATTATGGGTTTGGGCGGGCGGGTACTATCCACAGGTCAACC
B24: S1_F11 (ssDNA)
DNA: CCAGTGTAGACTACTCAATGCGTGGGAAGGGTGGGCGGGAGCATTGATAACTTCGGAGGAGCGTACTATCCACAGGTCAACC
B25: S1_F12 (ssDNA)
DNA: CCAGTGTAGACTACTCAATGCGTGGGAAGGGAGGGCGGGAGCATTGATAACTCGGAGGAGCGTACTATCCACAGGTCAACC

Assays:
SARS-CoV-2 spike RBD = SARS-CoV-2 spike RBD (SARS-CoV-2, UniProt P0DTC2 SEQ:1-223); test: BLI; conditions: tags: His tag, SinoBiological 40592-V08H
[1] = molecular target: SARS-CoV spike S1 subunit (SARS-CoV, UniProt P59594 SEQ:14-667); test: BLI; conditions: tags: SinoBiological
[2] = molecular target: T1, SARS-CoV-2 spike S1 subunit (SARS-CoV-2, UniProt P0DTC2 SEQ:1-670); test: BLI; conditions: tags: His tag, SinoBiological 40591-V08B1; label: 5'-biotin
Protocol: The affinity of four chosen aptamers (aptamer S1_A3-A (SEQ ID NO: 4); aptamer S1_A6 (SEQ ID NO: 8); aptamer S1_A8 (SEQ ID NO: 9); aptamer S1_F2 (SEQ ID NO: 43)) was determined using the BLI assay according to the protocol described above. The biotinylated aptamers were immobilised onto streptavidin biosensor probes (as described above) and then interaction monitored with a concentration series of SARS-CoV-2 Spike protein S1 (250 nM, 125 nM, 62.5 nM, 31.25 nM, 15.63 nM, 7.81 nM, 0 nM diluted in 1× ‘high salt’ aptamer selection buffer). KD values were calculated using the ForteBio software (ForteBio Data Analysis 8.0,), using a 2:1 binding model (FIGS. 6 & 7).

[3] = molecular target: SARS-CoV-2 spike protein trimer (SARS-CoV-2, UniProt P0DTC2); test: ELONA
Protocol: One ELONA plate (immobilised with the S1 binding aptamer A3) was then incubated with a fixed concentration (0.5 μM) of either the aptamer population isolated against the S2 subunit of the SARS-CoV-2 spike protein (S2_8R pool) or full-length aptamer clones S2_A2 (SEQ ID NO: 146), S2_B1 (SEQ ID NO: 150) and S2_G1 (SEQ ID NO: 171) (FIG. 16).

[4] = molecular target: SARS-CoV-2 spike S2 subunit (SARS-CoV-2, UniProt P0DTC2 SEQ:1-528); test: BLI; conditions: label: 5'-biotin
[5] = molecular target: T1, SARS-CoV-2 spike S1 subunit; test: BLI; conditions: tags: His tag, SinoBiological 40591-V08B1; label: 5'-biotin; remark: listed apart in the source

| Binder | binding result [5] | binding result (SARS-CoV-2 spike RBD; label: 5' biotin) | binding result ([1]; label: 5' biotin) | also measured |
| --- | --- | --- | --- | --- |
| B1 |  |  |  | binding result (SARS-CoV-2 spike RBD; label: 5'-biotin): binds; binding result ([1]; label: 5'-biotin): no binding; binding result [2]: binds |
| B2 |  |  |  | binding result (SARS-CoV-2 spike RBD; label: 5'-biotin): binds; binding result ([1]; label: 5'-biotin): no binding; binding result [2]: binds; binding result ([3]; label: 5' biotin): binds |
| B3 |  |  |  | binding result (SARS-CoV-2 spike RBD; label: 5'-biotin): binds; binding result ([1]; label: 5'-biotin): no binding; binding result [2]: binds |
| B4 |  |  |  | binding result (SARS-CoV-2 spike RBD; label: 5'-biotin): binds; binding result ([1]; label: 5'-biotin): no binding; binding result [2]: binds |
| B5 |  |  |  | binding result [3]: binds; binding result [4]: binds |
| B6 |  |  |  | binding result [3]: binds; binding result [4]: binds |
| B7 |  |  |  | binding result [3]: binds; binding result [4]: binds |
| B8 |  |  |  | binding result [4]: binds |
| B9 |  |  |  | binding result [4]: binds |
| TTGACCTCTGGATATGGGTGGGAGGGATGGGT (ssDNA) [S2_G1_F21] |  |  |  | binding result [4]: binds |
| B10 | binds | binds | no binding |  |
| B11 | binds | binds | no binding |  |
| B12 | binds | binds | no binding |  |
| B13 | binds | binds | no binding |  |
| B14 | binds | binds | no binding |  |
| B15 | binds | binds | no binding |  |
| B16 | binds | binds | no binding |  |
| B17 | binds | binds | no binding |  |
| B18 | binds | binds | no binding |  |
| B19 | binds | binds | no binding |  |
| B20 | binds | binds | no binding |  |
| B21 | binds | binds | no binding |  |
| B22 | binds | binds | no binding |  |
| B23 | binds | binds | no binding |  |
| B24 | binds | binds | no binding |  |
| B25 | binds | binds | no binding |  |
